Test results as given in US20230002480A1.

Legend:
Test in all cases: cell-based or functional assay
[1] = molecular target: HIV-1 Env of pseudovirus ZM197M.PB7 (HIV-1)
[2] = molecular target: HIV-1 Env of pseudovirus 249M B10 (HIV-1)
[3] = molecular target: HIV-1 Env of pseudovirus HIV-16845-2.22 (HIV-1)
[4] = molecular target: HIV-1 Env of pseudovirus 6545.v4.c1 (HIV-1)
[5] = molecular target: HIV-1 Env of pseudovirus BJOX025000.01.1 (HIV-1)
[6] = molecular target: HIV-1 Env of pseudovirus 62357_14_D3_4589 (HIV-1)
[7] = molecular target: HIV-1 Env of pseudovirus T250-4 (HIV-1)
[8] = molecular target: HIV-1 Env of pseudovirus Ce1172_H1 (HIV-1)
[9] = molecular target: HIV-1 Env of pseudovirus T251-18 (HIV-1)
[10] = molecular target: HIV-1 Env of pseudovirus CNE30 (HIV-1)
[11] = molecular target: HIV-1 Env of pseudovirus C2101.c01 (HIV-1)
[12] = molecular target: MuLV envelope (negative control pseudovirus)
[13] = molecular target: HIV-1 Env of pseudovirus X2088_c9 (HIV-1)
[14] = molecular target: HIV-1 Env of pseudovirus 263-8 (HIV-1)
[15] = molecular target: HIV-1 Env of pseudovirus T257-31 (HIV-1)
[16] = molecular target: HIV-1 Env of pseudovirus CNE19 (HIV-1)
[17] = molecular target: HIV-1 Env of pseudovirus 928-28 (HIV-1)
[18] = molecular target: HIV-1 Env of pseudovirus Q769.d22 (HIV-1)
[19] = molecular target: HIV-1 Env of pseudovirus 3016.v5.c45 (HIV-1)
[20] = molecular target: HIV-1 Env of pseudovirus Q259.d2.17 (HIV-1)
[21] = molecular target: HIV-1 Env of pseudovirus C3347.c11 (HIV-1)
[22] = molecular target: HIV-1 Env of pseudovirus 3817.v2.c59 (HIV-1)
[23] = molecular target: HIV-1 Env of pseudovirus 1006_11_C3_1601 (HIV-1)
[24] = molecular target: HIV-1 Env of pseudovirus 6480.v4.c25 (HIV-1)
[25] = molecular target: HIV-1 Env of pseudovirus Du172.17 (HIV-1)
[26] = molecular target: HIV-1 Env of pseudovirus 6535.3 (HIV-1)
[27] = molecular target: HIV-1 Env of pseudovirus C1080.c03 (HIV-1)
[28] = molecular target: HIV-1 Env of pseudovirus CNE20 (HIV-1)
[29] = molecular target: HIV-1 Env of pseudovirus 231966.c02 (HIV-1)
[30] = molecular target: HIV-1 Env of pseudovirus 3301.v1.c24 (HIV-1)
[31] = molecular target: HIV-1 Env of pseudovirus SC422661.8 (HIV-1)
[32] = molecular target: HIV-1 Env of pseudovirus MS208.A1 (HIV-1)
[33] = molecular target: HIV-1 Env of pseudovirus 620345.c01 (HIV-1)

B1: N49P22 (antibody, V domains shown)
V domain 1: HIQLLQSGPQVKKSGDTVRISCETSGYNFVDSRIHWVRQTPEKRLRWMGWINPLQGGVNYAPEFQGRIRMTRDTFIDTVYVDLSGLTPADTAYYYCARGIDGKSYPFHFWGHGTRVTVFS
V domain 2: RFALTQPASVSGSPGQTITITCAGGSVSWFHFPPGKTPRLIIYESSKRPSGVSPRFSGSQSGSTASLIISGLQSDDEGTYFCSILEFFGRGTLVTVLS
[1]
  IC50: 2.58 µg/mL
  IC80: 25.1 µg/mL
  MPI: 84
[2]
  IC50: > 50 µg/mL
  IC80: > 50 µg/mL
  MPI: 4
[3]
  IC50: 4.6 µg/mL
  IC80: 41.9 µg/mL
  MPI: 87
[4]
  IC50: > 50 µg/mL
  IC80: > 50 µg/mL
  MPI: 17
[5]
  IC50: > 50 µg/mL
  IC80: > 50 µg/mL
  MPI: 0
[6]
  IC50: > 50 µg/mL
  IC80: > 50 µg/mL
  MPI: 13
[7]
  IC50: > 50 µg/mL
  IC80: > 50 µg/mL
  MPI: 5
[8]
  IC50: > 50 µg/mL
  IC80: > 50 µg/mL
  MPI: 0
[9]
  IC50: 0.58 µg/mL
  IC80: 3.09 µg/mL
  MPI: 99
[10]
  IC50: > 50 µg/mL
  IC80: > 50 µg/mL
  MPI: 30
[11]
  IC50: 0.171 µg/mL
  IC80: 1.06 µg/mL
  MPI: 99
[12]
  IC50: > 50 µg/mL
  IC80: > 50 µg/mL
  MPI: 8
[13]
  IC50: > 50 µg/mL
  IC80: > 50 µg/mL
  MPI: 8
[14]
  IC50: 1.83 µg/mL
  IC80: 18.5 µg/mL
  MPI: 89
[15]
  IC50: > 50 µg/mL
  IC80: > 50 µg/mL
  MPI: 43
[16]
  IC50: 0.873 µg/mL
  IC80: 8.19 µg/mL
  MPI: 92
[17]
  IC50: > 50 µg/mL
  IC80: > 50 µg/mL
  MPI: 32
[18]
  IC50: 0.043 µg/mL
  IC80: 0.259 µg/mL
  MPI: 100
[19]
  IC50: > 50 µg/mL
  IC80: > 50 µg/mL
  MPI: 23
[20]
  IC50: > 50 µg/mL
  IC80: > 50 µg/mL
  MPI: 15
[21]
  IC50: 1.18 µg/mL
  IC80: 12.3 µg/mL
  MPI: 89
[22]
  IC50: > 50 µg/mL
  IC80: > 50 µg/mL
  MPI: 12
[23]
  IC50: 0.898 µg/mL
  IC80: 14.7 µg/mL
  MPI: 83
[24]
  IC50: 0.809 µg/mL
  IC80: 32.1 µg/mL
  MPI: 86
[25]
  IC50: > 50 µg/mL
  IC80: > 50 µg/mL
  MPI: 4
[26]
  IC50: > 50 µg/mL
  IC80: > 50 µg/mL
  MPI: 5
[27]
  IC50: 15.9 µg/mL
  IC80: > 50 µg/mL
  MPI: 64
[28]
  IC50: > 50 µg/mL
  IC80: > 50 µg/mL
  MPI: 18
[29]
  IC50: 3.35 µg/mL
  IC80: > 50 µg/mL
  MPI: 69
[30]
  IC50: 2.82 µg/mL
  IC80: 48.8 µg/mL
  MPI: 80
[31]
  IC50: 0.12 µg/mL
  IC80: 0.544 µg/mL
  MPI: 100
[32]
  IC50: > 50 µg/mL
  IC80: > 50 µg/mL
  MPI: 17
[33]
  IC50: > 50 µg/mL
  IC80: > 50 µg/mL
  MPI: 0
